The values that follow come from PMC12280157.

Experiment [1] concerns the target APLNR(K235)-cpGFP expressed in zebrafish embryos (human) (UniProt P35414).
Experiment [2] concerns the target APLNR(F233)-cpGFP (human) (UniProt P35414).
In experiment [3] the target is APLNR(K235)-cpGFP (human) (UniProt P35414).
In experiment [4] the target is APLNR(K235)-cpGFP expressed in zebrafish embryos (human) (UniProt P35414). The source holds these as a separate data set.
The target is the same in experiment [5]. The source holds these as a separate data set.

In experiment [1], DKHGTKHDFLNLRRKYRRHNCPKKRCLPLHSRVPFP (ligand) [zebrafish Apela] gave a cpGFP fluorescence intensity of the biosensor in zebrafish embryos at 6 hpf, after heat shock-induced ubiquitous apela overexpression, against wildtype siblings of 27 % increase.

Turning to QRRCMPLHSRVPFP [Apela(19-32)], the EC50 of the increase of cpGFP fluorescence (conformational change of the biosensor), stable HEK293T cells, 37 °C was 7 nM in experiment [2] and 8 nM in experiment [3].

B1: zebrafish Apelin (ligand)
chain: GPMASTEHSKEIEEVGSMRTPLRQNPARAGRSQRPAGWRRRRPRPRLSHKGPMPF
B1 came in with a cpGFP fluorescence intensity of the biosensor in zebrafish embryos at 6 hpf, after heat shock-induced ubiquitous apln overexpression, against wildtype siblings in experiment [1] of 27 % increase. In experiment [4], this molecule had a cpGFP fluorescence intensity of the biosensor in intersegmental vessels of zebrafish embryos at 28 hpf, after heat shock-induced apln overexpression, against control siblings of 250 % increase. In addition, the cpGFP fluorescence intensity of single cells at 1 to 5 cell distances from an apln-expressing cell, zebrafish embryos at 6 hpf; reduction against distance 1 in experiment [5] is 23 % reduction.
